Assays:
Assay in all cases: cell-based or functional assay
[1] = biological target: HIV-1 Env of isolate MGRM-A-012 (clade A pseudovirus) (HIV-1)
[2] = biological target: HIV-1 Env of isolate MGRM-D-026 (clade D pseudovirus) (HIV-1)
[3] = biological target: HIV-1 Env of isolate MGRM-D-029 (clade D pseudovirus) (HIV-1)
[4] = biological target: HIV-1 Env of pseudovirus MGRM-F1-008 (clade F) (HIV-1)
[5] = biological target: HIV-1 Env of pseudovirus MGRM-F1-023 (clade F) (HIV-1)
[6] = biological target: HIV-1 Env of pseudovirus MGRM-G-019 (HIV-1)
[7] = biological target: HIV-1 MGRM-G-009 Env (pseudovirus) (HIV-1)
[8] = biological target: HIV-1 isolate 94UG114 envelope glycoprotein (Env), clade D, on pseudovirus (HIV-1)
[9] = biological target: HIV-1 94UG103 Env (HIV-1)
[10] = biological target: HIV-1 CMU02 Env (HIV-1)
[11] = biological target: HIV-1 JR-CSF Env S393A (HIV-1 (isolate JR-CSF)) (UniProt P20871)
[12] = biological target: HIV-1 JR-CSF Env T394A (HIV-1 (isolate JR-CSF)) (UniProt P20871)
[13] = biological target: HIV-1 envelope glycoprotein (Env) of isolate 92WR009, subtype A (HIV-1)
[14] = biological target: HIV-1 envelope glycoprotein (Env) of isolate 94UG103, subtype A (HIV-1)
[15] = biological target: HIV-1 envelope glycoprotein (Env) of isolate APV_17, on pseudovirus (HIV-1)
[16] = biological target: HIV-1 envelope glycoprotein (Env) of isolate APV_6, on pseudovirus (HIV-1)
[17] = biological target: HIV-1 envelope glycoprotein (Env) of isolate MG RM-A-006, subtype A (HIV-1)
[18] = biological target: HIV-1 envelope glycoprotein (Env) of isolate MG RM-A-009, subtype A (HIV-1)
[19] = biological target: HIV-1 envelope glycoprotein (Env) of isolate MGRM-Chronic-B-020, on pseudovirus (HIV-1)
[20] = biological target: HIV-1 envelope glycoprotein (Env) of isolate QH0692.42, on pseudovirus (HIV-1)
[21] = biological target: HIV-1 Env of isolate MGRM-G-015 (subtype G) (HIV-1)
[22] = biological target: HIV-1 Env of isolate 92TH021 (subtype AE) (HIV-1)
[23] = biological target: HIV-1 Env of isolate CMU02 (subtype AE) (HIV-1)
[24] = biological target: HIV-1 Env of isolate MGRM-A-003 (pseudovirus) (HIV-1)
[25] = biological target: HIV-1 Env of isolate MGRM-A-004 (pseudovirus) (HIV-1)
[26] = biological target: HIV-1 Env of isolate MGRM-A-007 (subtype A) (HIV-1)
[27] = biological target: HIV-1 Env of isolate MGRM-A-014 (subtype A) (HIV-1)
[28] = biological target: HIV-1 Env of isolate MGRM-AE-001 (subtype AE) (HIV-1)
[29] = biological target: HIV-1 Env of isolate MGRM-AE-008 (subtype AE) (HIV-1)
[30] = biological target: HIV-1 Env of isolate MGRM-F1-013 (HIV-1)
[31] = biological target: HIV-1 Env of isolate MGRM-F1-016 (HIV-1)
[32] = biological target: HIV-1 Env of pseudovirus isolate MGRM-C-008 (clade C) (HIV-1)
[33] = biological target: HIV-1 Env of pseudovirus isolate MGRM-C-014 (clade C) (HIV-1)
[34] = biological target: HIV-1 Env of pseudovirus isolate MGRM-C-027 (clade C) (HIV-1)

Substance | IC50 (µg/ml), pseudovirus neutralization [1] [µg/mL] | IC50, pseudovirus neutralization [2] [µg/mL] | IC50, pseudovirus neutralization [3] [µg/mL] | IC50 [4] [µg/mL] | IC50 [5] [µg/mL] | IC50 (µg/ml), pseudovirus neutralization [6] [µg/mL] | IC50 (µg/ml), pseudovirus neutralization [7] [µg/mL] | IC50 (µg/ml), pseudovirus neutralization [8] [µg/mL] | Fold IC50 increase relative to wild-type (pseudovirus neutralization) [11] [fold] | Fold IC50 increase relative to wild-type (pseudovirus neutralization) [12] [fold] | IC50, pseudovirus neutralization [13] [µg/mL] | IC50, pseudovirus neutralization [14] [µg/mL] | IC50, pseudovirus neutralization [15] [µg/mL] | IC50, pseudovirus neutralization [16] [µg/mL] | IC50, pseudovirus neutralization [17] [µg/mL] | IC50, pseudovirus neutralization [18] [µg/mL] | IC50, pseudovirus neutralization [19] [µg/mL] | IC50, pseudovirus neutralization [20] [µg/mL] | other results
4E10 (antibody) | 4.27 | 2.95 | 5.3 | 2.75 | 0.44 | 6.53 | 1.34 | 9.72 |  |  |  |  |  |  |  |  |  |  | 
4858_P08 (PGT-123) (antibody) |  |  |  |  |  |  |  |  | 0.6 | 0.4 | 15.7 | 0.678 | 0.114 | 0.023 | > 50 | 0.004 | 0.005 | 0.158 | IC50, pseudovirus neutralization [9]: 0.846 µg/mL; IC50, pseudovirus neutralization [10]: > 10 µg/mL
1496_C09 (PG9) (TCN-109) (antibody) | 11.2 | 17.5 |  |  |  | 0.67 | 4.9 |  |  |  |  |  |  |  |  |  |  |  | IC50, pseudovirus neutralization [9]: 0.31 µg/mL; IC50 (µg/mL), pseudovirus neutralization [21]: 6.6 µg/mL
b12 (antibody) | > 50 | 1.55 | > 50 | > 50 | > 50 | 3.77 | > 50 | > 50 |  |  |  |  |  |  |  |  |  |  | 
5114_A19 (PGT-128) (antibody) |  |  |  |  |  |  |  |  | 1.4 | 3 |  |  |  |  |  |  |  |  | IC50, pseudovirus neutralization [22]: 0.01 µg/mL; IC50, pseudovirus neutralization [23]: > 50 µg/mL; IC50 (µg/mL), pseudovirus neutralization [24]: > 50 µg/mL; IC50 (µg/mL), pseudovirus neutralization [25]: > 50 µg/mL; IC50, pseudovirus neutralization [26]: > 50 µg/mL; IC50, pseudovirus neutralization [27]: 0.007 µg/mL; IC50, pseudovirus neutralization [28]: 0.069 µg/mL; IC50, pseudovirus neutralization [29]: > 50 µg/mL; IC50 (µg/mL), pseudovirus neutralization [30]: 12.7 µg/mL; IC50 (µg/mL), pseudovirus neutralization [31]: 1.21 µg/mL; IC50, pseudovirus neutralization [32]: 0.373 µg/mL; IC50, pseudovirus neutralization [33]: > 50 µg/mL; IC50, pseudovirus neutralization [34]: 0.081 µg/mL
1495_C14 (PGC14) (antibody) | > 50 | > 50 | > 50 | > 50 | > 50 | > 50 | > 50 | > 50 |  |  |  |  |  |  |  |  |  |  | 
2G12 (antibody) | > 50 | > 50 | > 50 | > 50 | 9.23 | 31 | > 50 | 13.9 |  |  |  |  |  |  |  |  |  |  | 
5329_C19 (PGT-136) (antibody) |  |  |  |  |  |  |  |  |  |  |  |  |  |  |  |  |  |  | IC50, pseudovirus neutralization [22]: > 50 µg/mL; IC50, pseudovirus neutralization [23]: > 50 µg/mL; IC50 (µg/mL), pseudovirus neutralization [24]: > 50 µg/mL; IC50 (µg/mL), pseudovirus neutralization [25]: > 50 µg/mL; IC50, pseudovirus neutralization [26]: > 50 µg/mL; IC50, pseudovirus neutralization [27]: > 50 µg/mL; IC50, pseudovirus neutralization [28]: > 50 µg/mL; IC50, pseudovirus neutralization [29]: > 50 µg/mL; IC50 (µg/mL), pseudovirus neutralization [30]: > 50 µg/mL; IC50 (µg/mL), pseudovirus neutralization [31]: > 50 µg/mL; IC50, pseudovirus neutralization [32]: > 50 µg/mL; IC50, pseudovirus neutralization [33]: > 50 µg/mL; IC50, pseudovirus neutralization [34]: > 50 µg/mL
2F5 (antibody) | 2.36 | 4.37 | > 50 | 1.61 | 1.78 | > 50 | 7.21 | > 50 |  |  |  |  |  |  |  |  |  |  | 
4838_L06 (PGT-121) (antibody) |  |  |  |  |  |  |  |  |  |  | 1.74 | 2.52 | 0.066 | 0.018 | 0.396 | 0.006 | 0.004 | 0.823 | IC50, pseudovirus neutralization [10]: > 10 µg/mL
5141_B17 (PGT-126) (antibody) |  |  |  |  |  |  |  |  | 0.5 | 0.6 | > 50 | 0.008 | 0.353 | 0.007 | > 50 | 0.004 | 0.021 | 0.048 | IC50, pseudovirus neutralization [9]: 0.0091 µg/mL; IC50, pseudovirus neutralization [10]: > 10 µg/mL
5343_B08 (PGT-135) (antibody) |  |  |  |  |  |  |  |  | 0.9 | > 75 |  |  |  |  |  |  |  |  | IC50, pseudovirus neutralization [22]: > 50 µg/mL; IC50, pseudovirus neutralization [23]: > 50 µg/mL; IC50 (µg/mL), pseudovirus neutralization [24]: > 50 µg/mL; IC50 (µg/mL), pseudovirus neutralization [25]: > 50 µg/mL; IC50, pseudovirus neutralization [26]: > 50 µg/mL; IC50, pseudovirus neutralization [27]: 0.636 µg/mL; IC50, pseudovirus neutralization [28]: > 50 µg/mL; IC50, pseudovirus neutralization [29]: > 50 µg/mL; IC50 (µg/mL), pseudovirus neutralization [30]: 21.1 µg/mL; IC50 (µg/mL), pseudovirus neutralization [31]: > 50 µg/mL; IC50, pseudovirus neutralization [32]: > 50 µg/mL; IC50, pseudovirus neutralization [33]: > 50 µg/mL; IC50, pseudovirus neutralization [34]: > 50 µg/mL
5145_B14 (PGT-127) (antibody) |  |  |  |  |  |  |  |  | 1.2 | 1.6 | > 50 | 0.017 | 10.4 | 0.04 | > 50 | 0.013 | 0.05 | 0.129 | 
4877_D15 (PGT-122) (antibody) |  |  |  |  |  |  |  |  |  |  | 42.4 | 2.04 | 0.25 | 0.019 | > 50 | 0.012 | 0.005 | 0.493 | IC50, pseudovirus neutralization [9]: 1.46 µg/mL; IC50, pseudovirus neutralization [10]: > 10 µg/mL
PGV04 (antibody) |  |  |  |  |  |  |  |  |  |  |  |  |  |  |  |  |  |  | IC50 (µg/mL), pseudovirus neutralization [21]: 0.333 µg/mL
1443_C16 (PG16) (TCN-116) (antibody) | 20.7 | > 50 | > 50 | > 50 | > 50 | 1.21 | > 50 | > 50 |  |  |  |  |  |  |  |  |  |  | 
5345_I01 (PGT-137) (antibody) |  |  |  |  |  |  |  |  |  |  |  |  |  |  |  |  |  |  | IC50, pseudovirus neutralization [22]: > 50 µg/mL; IC50, pseudovirus neutralization [23]: > 50 µg/mL; IC50 (µg/mL), pseudovirus neutralization [24]: > 50 µg/mL; IC50 (µg/mL), pseudovirus neutralization [25]: > 50 µg/mL; IC50, pseudovirus neutralization [26]: > 50 µg/mL; IC50, pseudovirus neutralization [27]: 18.6 µg/mL; IC50, pseudovirus neutralization [28]: > 50 µg/mL; IC50, pseudovirus neutralization [29]: > 50 µg/mL; IC50 (µg/mL), pseudovirus neutralization [30]: > 50 µg/mL; IC50 (µg/mL), pseudovirus neutralization [31]: > 50 µg/mL; IC50, pseudovirus neutralization [32]: > 50 µg/mL; IC50, pseudovirus neutralization [33]: > 50 µg/mL; IC50, pseudovirus neutralization [34]: > 50 µg/mL
5123_A06 (PGT-125) (antibody) |  |  |  |  |  |  |  |  | 0.5 | 0.6 | 0.144 | 0.008 | 8.06 | 0.021 | > 50 | 0.009 | 0.087 | 0.048 | IC50, pseudovirus neutralization [9]: 0.0124 µg/mL; IC50, pseudovirus neutralization [10]: > 10 µg/mL

From patent US20240132578A1
